# Laboratory results from patent US20090075921A1, “Bone/joint disease sensitivity gene and use thereof” (Riken, priority 2004, published 2009).
# d = 2'-deoxy (DNA); r = 2'-OH (RNA)
# B1: human asporin D13: human asporin with 13 aspartic acid repeats, expressed from pcDNA3.1-ASP13 (SEQ ID NO:4) (protein, UniProt Q9BXN1 33-380, looked up)
# Asporin: DMEDTDDDDDDDDDDDDDDEDNSLFPTREPRSHFFPFDLFPMCPFGCQCYSRVVHCSDLGLTSVPTNIPFDTRMLDLQNNKIKEIKENDFKGLTSLYGLILNNNKLTKIHPKAFLTTKKLRRLYLSHNQLSEIPLNLPKSLAELRIHENKVKKIQKDTFKGMNALHVLEMSANPLDNNGIEPGAFEGVTVFHIRIAEAKLTSVPKGLPPTLLELHLDYNKISTVELEDFKRYKELQRLGLGNNKITDIENGSLANIPRVREIHLENNKLKKIPSGLPELKYLQIIFLHSNSIARVGVNDFCPTVPKMKKSLYSAISLFNNPVKYWEMQPATFRCVLSRMSVQLGNFGM
# Key:
# NHAC [1] = experiment: Effects of SB431542 on gene expression induction by TGF-β1 in NHAC; type: cell-based, human; conditions: SB431542 10 μM added 30 minutes before TGF-β1 10 ng/ml, 12 hours
# Method: A time course of the expression of the asporin gene by TGF-β1 in NHAC was examined as described below. Cells were inoculated to a 12-well plate at 1×10^5 cells/well, and cultured in a DMEM/F12 containing 10% FBS until they became confluent. The medium was exchanged with a DMEM/F12 containing 0.2% FBS, and the cells were cultured for 24 hours, after which TGF-β1 (10 ng/ml) was added, total RNA was extracted over time, and the expression levels of the asporin and GAPDH genes were examined. As a result, the expression level of the asporin gene maximized when the cells were cultured in the presence of TGF-β1 (10 ng/ml) for 12 hours, and thereafter the expression level decreased over time (FIG. 46).
# In the experimental system for asporin gene expression induction by TGF-β1 used in the method described in Example 54, the effects of SB431542 (Sigma) (10 μM), an inhibitor of TGF-β1 type 1 receptor phosphorylation, on the induction of the expression of the asporin, type II collagen, aggrecan, and TGF-β1 genes (12 hours), when added 30 minutes before addition of TGF-β1 (10 ng/ml), were examined.
# NHAC [2] = experiment: Asporin-specific siRNA transfection in NHAC, gene expression; type: cell-based, human; conditions: 24 hours, medium with 10 ng/ml TGF-β1
# Method: Asporin-specific siRNA (Si9: […]; SEQ ID NO:35) was designed using an siRNA design support system in Takara Shuzo's website (http://www.takara-bio.co.jp/rnai/intro/htm). […] Cells were inoculated to a 12-well plate at 5×10^5 cells/well, and cultured in a DMEM/F12 containing 10% FBS, ITS, 10 ng/ml TGF-β1 and penicillin/streptomycin for 24 hours, and siRNA transfection was performed using TransIT-TKO (Takara Shuzo). Total RNA was extracted from the cells after 24 hours of cultivation, and examined for the expression of the type II collagen, aggrecan and TGF-β1 genes. […] Therefore, endogenous asporin was thought to negatively regulate the expression of cartilage substrate and the expression of TGF-β1 in NHAC.
# [3] = test system: ATDC5 cell lines that transiently express human asporin; experiment: TGF-β1-stimulated aggrecan and type II collagen gene expression in ATDC5 transiently expressing human asporin; type: cell-based, mouse; conditions: transient expression vs mock, TGF-β1 10 ng/ml, 18 hours
# Method: ATDC5 cells were inoculated to a 12-well plate at 0.5×10^5 cells/well, and cultured in a medium 1-2 (DMEM/F12 medium containing 5% FBS, ITS (Sigma), penicillin (100 U/ml) and streptomycin (100 μg/ml)). 24 hours later, pcDNA3.1-ASP13 or pcDNA3.1-ASP14 were introduced using FuGENE-6 (Roche), and the cells were cultured for 24 hours. Next, the medium was exchanged with a medium 1-2 containing 0.2% FBS, and the cells were cultured for 12 hours, after which TGF-β1 (10 ng/ml) was added, and the cells were further cultured for 18 hours, after which total RNA extraction, purification, cDNA synthesis, and real-time PCR were performed in the same manner as Example 18. As a result, the elevation of the TGF-β1-stimulated expression levels of the aggrecan and type II collagen genes was suppressed in the ATDC5 cells allowed to transiently express human asporin D13 or D14 compared to mock (FIG. 14).
# First, the expression level of the aggrecan gene elevated by TGF-β1 stimulation in mock is written as (AM), and the expression level of the type II collagen gene at the same time is written as (CM). Next, the TGF-β1-stimulated aggrecan gene expression level suppressed by the forced expression of asporin D13 is written as (A13), and the type II collagen gene expression level at the same time is written as (C13). […] Thus, the suppression rate of the TGF-β1-stimulated aggrecan gene expression in the asporin D13 expressing line can be expressed as (A13)/(AM), and the suppression rate of the type II collagen gene expression as (C13)/(CM). Likewise, the suppression rate of the TGF-β1-stimulated aggrecan gene expression in the asporin D14 expressing line can be expressed as (A14)/(AM), and the suppression rate of the type II collagen gene expression as (C14)/(CM). Furthermore, by making a correction by dividing these values by the human asporin mRNA content obtained with TGF-β1 stimulation, the suppression rate of the aggrecan and type II collagen gene expression per human asporin mRNA content were calculated. […]
# [4] = test system: ATDC5 cell lines that stably express human asporin; experiment: TGF-βs-stimulated aggrecan and type II collagen gene expression in ATDC5 lines stably expressing human asporin; type: cell-based, mouse; conditions: stably expressing lines vs mock, TGF-βs 10 ng/ml, 24 hours
# Method: Plasmid DNAs for allowing ATDC5 cells, a mouse cartilage stem cell line, to stably express human asporin were prepared as described below. First, by the method described below, full-length cDNAs of human asporin D13 and D14 were acquired. Using KOD-plus (Toyobo), according to the method described in the attached protocol, a reaction mixture was prepared. Per 25 μl of the reaction mixture, […] each of a sense strand primer comprising the initiation codon and a restriction enzyme XhoI site, and an antisense strand primer comprising the stop codon of aspotin and a restriction enzyme BamHI site, were used as the primers, and 1 μl (10 ng as total RNA) of a cDNA solution prepared from total RNA extracted from knee articular cartilage from OA patients carrying the D13 allele and the D14 allele of aspartic acid repeat polymorphisms in asporin heterologously was used as the template. […]
# The TGF-βs-stimulated expression of the aggrecan and type II collagen genes in ATDC5 cell lines that stably express human asporin was quantified by the method described below. […] For real-time PCR, reactions were performed using QuantiTect SYBR Green PCR Kit (QIAGEN), and detection and quantitation were performed using ABI PRISM 7700. […]
# [5] = test system: ATDC5 cell lines that stably express human asporin; experiment: Alcian Blue staining of extracellular proteoglycan in ATDC5 lines stably expressing human asporin; type: cell-based, mouse; conditions: Day 21 of cultivation, absorbance at 630 nm
# Method: The ATDC5 cell lines that stably express human asporin prepared in Example 17 were cultured by the method described in Example 20; using the cells on Day 21 after the start of cultivation, Alcian Blue staining was performed as described below. First, the medium was removed by suction, and the cell surface was washed with cold PBS three times, after which methanol fixation was performed at 4° C. for 2 minutes. The methanol was removed by suction, the cells were once rinsed with distilled water, and then stained using 0.1% Alcian Blue 8GX (Sigma)/3% acetic acid solution at 4° C. for 2 days. The staining solution was removed, the cells were washed with distilled water three times, and then examined under microscope and photographed. Thereafter, the cells were treated with aqueous solution of 6 M guanidine hydrochloride to extract the stained proteoglycan, after which the absorbance at 630 nm was measured.
# [6] = test system: ATDC5 cell lines that stably express human asporin; experiment: Cartilage differentiation culture of ATDC5 lines stably expressing human asporin; type: cell-based, mouse; conditions: stably expressing lines, 5, 9, 15 or 21 days; mock peaks on Day 9
# Method: The ATDC5 cell lines that stably express human asporin prepared in Example 17 were inoculated to a 12-well plate at 0.3×10^5 cells/well, and cultured in a medium 1-1 for 5, 9, 15 or 21 days, after which total RNA extraction, purification, cDNA synthesis, and real-time PCR were performed in the same manner as Example 18.
molecule,measurement,setting,value
NC(=O)c1ccc(-c2nc(-c3ccc4c(c3)OCO4)c(-c3ccccn3)[nH]2)cc1 [SB431542],"induction by TGF-β1 of the expression of the asporin, type II collagen, aggrecan, and TGF-β1 genes",NHAC [1],inhibited the induction by TGF-β1 of the expression of these genes
"UCCCUUCAGGAUUACCAGATT (siRNA; sugars from the 5' end r19 d2, backbone not given here) [asporin-specific siRNA]","expression of the type II collagen, aggrecan and TGF-β1 genes",NHAC [2],significantly increased
B1,elevation of the TGF-β1-stimulated expression levels of the aggrecan and type II collagen genes,[3],suppressed
same,elevation of the TGF-β1-stimulated expression levels of the aggrecan and type II collagen genes,[4],suppressed compared to mock
same,intensity of staining with Alcian Blue (extracellular proteoglycan),[5],mock>D13>D14
same,expression of the aggrecan and type II collagen genes during cartilage differentiation culture,[6],did not rise
